From publication PMC9123601 (Archives of biochemistry and biophysics, 2015)
Where two headings read alike, the source gives them in different places.

B1: Human Prx2, native, reduced (thiol cysteines) (enzyme, UniProt P32119 1-198, looked up)
chain: MASGNARIGKPAPDFKATAVVDGAFKEVKLSDYKGKYVVLFFYPLDFTFVCPTEIIAFSNRAEDFRKLGCEVLGVSVDSQFTHLAWINTPRKEGGLGPLNIPLLADVTRRLSEDYGVLKTDEGIAYRGLFIIDGKGVLRQITVNDLPVGRSVDEALRLVQAFQYTDEHGEVCPAGWKPGSDTIKPNVDDSKEYFSKHN
modifications: cysteines reduced (thiol)
B2: Human Prx2, overoxidized (enzyme, UniProt P32119 1-198, looked up)
chain: MASGNARIGKPAPDFKATAVVDGAFKEVKLSDYKGKYVVLFFYPLDFTFVCPTEIIAFSNRAEDFRKLGCEVLGVSVDSQFTHLAWINTPRKEGGLGPLNIPLLADVTRRLSEDYGVLKTDEGIAYRGLFIIDGKGVLRQITVNDLPVGRSVDEALRLVQAFQYTDEHGEVCPAGWKPGSDTIKPNVDDSKEYFSKHN
modifications: overoxidized (so in the source)

Legend:
SEC [1] = biological target: the molecule itself; test: SEC
SEC [2] = biological target: the molecule itself; test: SEC; remark: listed apart in the source

| Protein | stoichiometry N (SEC [1]) | stoichiometry N (SEC [2]) |
| --- | --- | --- |
| B1 | 10 |  |
| B2 |  | 10 |
